Experiments:
[1] = molecular target: SARS-CoV-2 spike protein (S-wt, Wuhan-Hu-1, NCBI Accession Number MN908947.3) on VSV-SARS-CoV-2-S pseudoparticles (SARS-CoV-2) (UniProt P0DTC2); assay: cell-based or functional assay
[2] = molecular target: MERS.hFc (mAb2664-L1) (MERS-CoV) (UniProt K9N5Q8); assay: Luminex bead binding, supernatant
[3] = molecular target: Bt-MERS.hFc (mAb2664-L2) (MERS-CoV) (UniProt K9N5Q8); assay: Luminex bead binding, supernatant
[4] = molecular target: MERS.mFc (mAb2663-L1) (MERS-CoV) (UniProt K9N5Q8); assay: Luminex bead binding, supernatant

| Substance | neutralization potency IC50 [1] | MFI [2] | MFI [3] | MFI [4] |
| --- | --- | --- | --- | --- |
| mAb10936 (antibody) | 111 pM | – | – | – |
| mAb10987 (antibody) | 40.6 pM | 235 MFI | 172 MFI | 196 MFI |
| mAb10934 (antibody) | 54.4 pM | – | – | – |
